Measured values reported in article PMC8885411, “Engineered ACE2 decoy mitigates lung injury and death induced by SARS-CoV-2 variants” (Nature Chemical Biology, 2022).

Biological target: T1, SARS-CoV-1 S protein with C-terminal C9 tag (SARS-CoV-1 (Severe acute respiratory …, UniProt P59594))
T1 construct: also called S protein of SARS-CoV-1; SARS-spike
Test: flow cytometry on cells
Settings: one partner purified

B1: REGN10933 (antibody, V domains shown)
VH: QVQLVESGGGLVKPGGSLRLSCAASGFTFSDYYMSWIRQAPGKGLEWVSYITYSGSTIYYADSVKGRFTISRDNAKSSLYLQMNSLRAEDTAVYYCARDRGTTMVPFDYWGQGTLVTVSS
VL: DIQMTQSPSSLSASVGDRVTITCQASQDITNYLNWYQQKPGKAPKLLIYAASNLETGVPSRFSGSGSGTDFTFTISGLQPEDIATYYCQQYDNLPLTFGGGTKVEIK
notes: also called casirivimab
Q: Does B1 bind?
A: Result: no binding

B2: REGN10987 (antibody, V domains shown)
VH: QVQLVESGGGVVQPGRSLRLSCAASGFTFSNYAMYWVRQAPGKGLEWVAVISYDGSNKYYADSVKGRFTISRDNSKNTLYLQMNSLRTEDTAVYYCASGSDYGDYLLVYWGQGTLVTVSS
VL: QSALTQPASVSGSPGQSITISCTGTSSDVGGYNYVSWYQQHPGKAPKLMIYDVSKRPSGVSNRFSGSKSGNTASLTISGLQSEDEADYYCNSLTSISTWVFGGGTKLTVL
notes: also called imdevimab
Q: Does B2 bind?
A: Result: no binding
